Here are results for five variants from IntAct's records for PubMed 22615398.

The labels stand for the following.
B1: Geminin (Homo sapiens), O75496 (parent)
chain: MNPSMKQKQEEIKENIKNSSVPRRTLKMIQPSASGSLVGRENELSAGLSKRKHRNDHLTSTTSSPGVIVPESSENKNLGGVTQESFDLMIKENPSSQYWKEVAEKRRKALYEALKENEKLHKEIEQKDNEIARLKKENKELAEVAEHVQYMAELIERLNGEPLDNFESLDNQEFDSEEETVEDSLVEDSEIGTCAEGTVSSSTDAKPCI

In this test the parent is B1. As to conditions: with hxc9_human HOXC9, P31274.
Sequence of hxc9_human HOXC9, P31274 (P31274 whole entry): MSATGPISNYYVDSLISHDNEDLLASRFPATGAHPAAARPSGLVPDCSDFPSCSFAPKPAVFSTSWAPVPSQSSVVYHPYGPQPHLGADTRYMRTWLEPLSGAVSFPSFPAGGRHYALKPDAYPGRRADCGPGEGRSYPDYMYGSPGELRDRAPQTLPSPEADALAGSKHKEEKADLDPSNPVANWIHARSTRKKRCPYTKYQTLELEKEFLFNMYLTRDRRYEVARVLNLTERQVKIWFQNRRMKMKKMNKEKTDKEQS
As for MNPSMKQKQEEIKENIKNSSVPRRTLKMIQPSASGSLVGRENELSAGLSKRKHRNDHLTSTTSSPGVIVPESSENKNLGGVTQESFDLMIKENPSSQYWKEVAEKRRKALYEALKENEKLHKEIEQKDNEIARLKKENKELAEVAEHVQYMAELIERLNGEPLDNFESLDNQEFDSEEETVEDSLAQNSEIGTCAEGTVSSSTDAKPCI [V186A;E187Q;D188N], the “effect of a mutation on the interaction” value is recorded as “decreasing interaction strength”.
For the variant MNPSMKQKQEEIKENIKNSSVPRRTLKMIQPSASGSLVGRENELSAGLSKRKHRNDHLTSTTSSPGVIVPESSENKNLGGVTQESFDLMIKENPSSQYWKEVAEKRRKALYEALKENEKLHKEIEQKDNEIARLKKENKELAEVAEHVQYMAELIERLNGEPLDNFESLDNQEFDSEEETVEDELVEDSEIGTCAEGTVSSSTDAKPCI [S184E], the “effect of a mutation on the interaction” value is “increasing interaction strength”.
The same measure for MNPSMKQKQEEIKENIKNSSVPRRTLKMIQPSASGSLVGRENELSAGLSKRKHRNDHLTSTTSSPGVIVPESSENKNLGGVTQESFDLMIKENPSSQYWKEVAEKRRKALYEALKENEKLHKEIEQKDNEIARLKKENKELAEVAEHVQYMAELIERLNGEPLDNFESLDNQEFDSQQQTVQDSLVQNSEIGTCAEGTVSSSTDAKPCI [E177Q;E178Q;E179Q;E182Q;E187Q;D188N]: “decreasing interaction strength”; for MNPSMKQKQEEIKENIKNSSVPRRTLKMIQPSASGSLVGRENELSAGLSKRKHRNDHLTSTTSSPGVIVPESSENKNLGGVTQESFDLMIKENPSSQYWKEVAEKRRKALYEALKENEKLHKEIEQKDNEIARLKKENKELAEVAEHVQYMAELIERLNGEPLDNFESLDNQEFDSQQQTVEDSLVEDSEIGTCAEGTVSSSTDAKPCI [E177Q;E178Q;E179Q]: “decreasing interaction strength”.
The same measure for MNPSMKQKQEEIKENIKNSSVPRRTLKMIQPSASGSLVGRENELSAGLSKRKHRNDHLTSTTSSPGVIVPESSENKNLGGVTQESFDLMIKENPSSQYWKEVAEKRRKALYEALKENEKLHKEIEQKDNEIARLKKENKELAEVAEHVQYMAELIERLNGEPLDNFESLDNQEFDSEEETAQNSLVEDSEIGTCAEGTVSSSTDAKPCI [V181A;E182Q;D183N]: “decreasing interaction strength”.
